{
  "source": "paper PMC12049944",
  "about": "“Lecithin:cholesterol acyltransferase binds a discontinuous binding site on adjacent apolipoprotein A-I belts in HDL” (Journal of Lipid Research, 2025)",
  "proteins": {"B1": {"name": "Lecithin:cholesterol acyltransferase (recombinant, expressed in CHO cells) (enzyme, human, UniProt P04180 25-440, looked up)", "chain": "FWLLNVLFPPHTTPKAELSNHTRPVILVPGCLGNQLEAKLDKPDVVNWMCYRKTEDFFTIWLDLNMFLPLGVDCWIDNTRVVYNRSSGLVSNAPGVQIRVPGFGKTYSVEYLDSSKLAGYLHTLVQNLVNNGYVRDETVRAAPYDWRLEPGQQEEYYRKLAGLVEEMHAAYGKPVFLIGHSLGCLHLLYFLLRQPQAWKDRFIDGFISLGAPWGGSIKPMLVLASGDNQGIPIMSSIKLKEEQRITTTSPWMFPSRMAWPEDHVFISTPSFNYTGRDFQRFFADLHFEEGWYMWLQSRDLLAGLPAPGVEVYCLYGVGLPTPRTYIYDHGFPYTDPVGVLYEDGDDTVATRSTELCGLWQGRQPQPVHLLPLHGIQHLNMVFSNLTLEHINAILLGAYRQGPPASPTASPEPPPPE", "notes": "Lecithin:cholesterol acyltransferase, human; cross-links to 'LCAT residue 1' (the N-terminus) are reported; Used for all non-cryoEM experiments (cross-linking, SEC, negative-stain EM, activity assays); also called LCAT; human LCAT; source: CHO cells, recombinant, gifted by Alan Remaley"}},
  "target": "the molecule itself",
  "assay": "SEC; LCAT alone on triple Superdex 200 Increase, run beside rHDL alone and the cross-linked mixture",
  "data": [
    {"protein": "B1", "values": [
      {"measurement": "binding result", "result": "binds"}
    ]}
  ]
}
